Literature values as cited in US20100143424A1, “CASEIN NANOPARTICLE” (FUJIFILM CORPORATION, priority 2008, published 2010).

Details: casein derived from milk, Wako Pure Chemical Industries

Substance: casein
- isoelectric point: 4.3
